Experimental data from patent US9631002B2, “Methods and compositions for producing active vitamin K-dependent proteins” (The University of North Carolina at Chapel Hill, priority 2010, dated 2017).

Experiments:
[1] = tested on: carboxylation of FIXgla-PC reporter protein in HEK293 cells (reduction of KO to vitamin K); experiment: Cell-based VKOR activity assay: recombinant VKOR/VKORH expressed in FIXgla-PC/HEK293 cells with KO and warfarin, carboxylated reporter by ELISA; set-up: species or system human
[2] = tested on: carboxylation of FIXgla-PC reporter protein in AV12 cells (reduction of vitamin K to KH2); experiment: Cell-based VKOR activity assay in FIXgla-PC/AV12 or FIXgla-PC/VKOR-Y139F/AV12 cells, carboxylated reporter by ELISA; set-up: species or system Syrian golden hamster

Molecule | activity relative to human VKOR-Y139F ([1]; 5 μM KO, 4 μM warfarin, 48 h, luciferase-normalized (FIG. 15B)) [fold] | Relative activity: Human Y139F ([1]; VKOR of the organism compared to human Y139F VKOR, cell-based carboxylation) | activity relative to human VKOR (Y139F) ([1]; both human forms carry Y139F, 5 μM KO, 2 μM warfarin) [fold] | support of reporter protein carboxylation ([2]; transient expression in FIXgla-PC/AV12 not stably expressing VKOR-Y139F, KO and warfarin (FIG. 19B)) | activity in reducing vitamin K to KH2 to support carboxylation ([2]; transient expression in FIXgla-PC/VKOR-Y139F/AV12, KO and warfarin (FIG. 19A)) | ability of human VKOR with replaced residues 122-139 to use KO to carboxylate the reporter ([1]; 5 μM KO, 2 μM warfarin, 48 h, HEK293 (FIG. 11C)) | ability of human VKOR with replaced residues 122-139 to use vitamin K to carboxylate the reporter ([2]; 11 μM K, 2 μM warfarin, 48 h, FIXgla-PC AV-12 (FIG. 11B))
MT-VKORH: Mycobacterium tuberculosis VKOR homologue, NP_217484, SEQ ID NO:18 (protein, listed as Mycobacterium tuberculosis) MVAARPAERSGDPAAVRVPVPSAWWVLIGGVIGLFASMTLTVEKVRILLDPIYVPSCNVNPIVSCGSVMTTPQASLLGFPNPLLGIAGFTVVVVTGVLAVAKVPLPRWYWIGLAVGILVGVAFVHWLIFQSLYRIGALCPYCMVVWAVIATLLVVVASIVFGPMRENRGSQERVGARLLYQWRWSLATLWFTTVFLLIMVRFWDYSTLI | 2.5 | Yes, greater | 2 | produced significant carboxylated reporter protein | significant activity | – | –
hVKOR M. tuberculosis: human VKOR with residues 122-139 replaced by M. tuberculosis VKOR 129-146, SEQ ID NO:29 (protein, Human VKOR with amino acids 122-139 substituted with amino acids 129-146 of M. tuberculosis VKOR (RefSeq accession no. NP_217484)) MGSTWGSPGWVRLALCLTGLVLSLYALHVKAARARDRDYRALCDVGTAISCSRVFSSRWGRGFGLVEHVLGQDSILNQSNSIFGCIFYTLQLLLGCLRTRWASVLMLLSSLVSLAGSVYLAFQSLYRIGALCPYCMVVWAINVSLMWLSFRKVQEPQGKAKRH | – | – | – | – | – | functions as a VKOR | can utilize vitamin K to produce carboxylated reporter protein
